Target: full-length GST-tagged SARS-CoV-2 Nucleocapsid (N) protein (SARS-CoV-2, UniProt P0DTC9 1-419)
Assay: pull-down

B1: human UPF2 truncated construct lacking 120 and 45 residues at the N- and C-termini (domain or fragment)
chain: MKEKEESIQLHQEAWERHHLRKELRSKNQNAPDSRPEENFFSRLDSSLKKNTAFVKKLKTITEQQRDSLSHDFNGLNLSKYIAEAVASIVEAKLKISDVNCAVHLCSLFHQRYADFAPSLLQVWKKHFEARKEEKTPNITKLRTDLRFIAELTIVGIFTDKEGLSLIYEQLKNIINADRESHTHVSVVISFCRHCGDDIAGLVPRKVKSAAEKFNLSFPPSEIISPEKQQPFQNLLKEYFTSLTKHLKRDHRELQNTERQNRRILHSKGELSEDRHKQYEEFAMSYQKLLANSQSLADLLDENMPDLPQDKPTPEEHGPGIDIFTPGKPGEYDLEGGIWEDEDARNFYENLIDLKAFVPAILFKDNEKSCQNKESNKDDTKEAKESKENKEVSSPDDLELELENLEINDDTLELEGGDEAEDLTKKLLDEQEQEDEEASTGSHLKLIVDAFLQQLPNCVNRDLIDKAAMDFCMNMNTKANRKKLVRALFIVPRQRLDLLPFYARLVATLHPCMSDVAEDLCSMLRGDFRFHVRKKDQINIETKNKTVRFIGELTKFKMFTKNDTLHCLKMLLSDFSHHHIEMACTLLETCGRFLFRSPESHLRTSVLLEQMMRKKQAMHLDARYVTMVENAYYYCNPPPAEKTVKKKRPPLQEYVRKLLYKDLSKVTTEKVLRQMRKLPWQDQEVKDYVICCMINIWNVKYNSIHCVANLLAGLVLYQEDVGIHVVDGVLEDIRLGMEVNQPKFNQRRISSAKFLGELYNYRMVESAVIFRTLYSFTSFGVNPDGSPSSLDPPEHLFRIRLVCTILDTCGQYFDRGSSKRKLDCFLVYFQRYVWWKKSLEVWTKDHPFPIDIDYMISDTLELLRPKIKLCNSLEESIRQVQDLEREFLIKLGLVNDKDSKDSMTEGENLEEDEEEEEGGAETEEQSGNESEVNEPEEEEGSDNDDDEGEEEEEENTDYLTDSNKENETDEENTEVMIKGGGLKHVPCVEDEDFIQALDKMMLENLQQRSGESVKVHQLDVAIPLHLKSQLRKGPPLGGGEGEAESADTMPFVMLTRKGNKQQFKILNVPMSSQLAANHWNQQQAEQEERMRMKKLTLDINERQEQED
Q: Does B1 bind?
A: binds

From paper doi:10.1101/2024.07.16.603698 (bioRxiv, 2024)
